Measured values taken from patent US20220054419A1.

Key:
Test in all cases: cell-based or functional assay
[1] = target: hemagglutinin (HA) of A/New York/8/06 (H1N1) on pseudotyped lentivirus (Influenza virus A/New York/8/06 (H1N1))
[2] = target: hemagglutinin (HA) of A/Hong Kong/117/77 (H1N1) on pseudotyped lentivirus (Influenza virus A/Hong Kong/117/77 (H1N1)) (UniProt P18875)
[3] = target: hemagglutinin (HA) of A/Beijing/262/95 (H1N1) on pseudotyped lentivirus (Influenza virus A/Beijing/262/95 (H1N1))
[4] = target: hemagglutinin (HA) of A/New Caledonia/20/99 (H1N1) on pseudotyped lentivirus (Influenza virus A/New Caledonia/20/1999 (H1N1)) (UniProt Q289M7)
[5] = target: hemagglutinin (HA) of A/Puerto Rico/8/34 (H1N1) on pseudotyped lentivirus (Influenza virus A/Puerto Rico/8/34 (H1N1)) (UniProt P03452)
[6] = target: hemagglutinin (HA) of A/Singapore/6/86 (H1N1) on pseudotyped lentivirus (Influenza virus A/Singapore/6/86 (H1N1)) (UniProt A3DRP0)
[7] = target: hemagglutinin (HA) of A/Iowa/43 (H1N1) on pseudotyped lentivirus (Influenza virus A/Iowa/43 (H1N1)) (UniProt A4GCK8)
[8] = target: hemagglutinin (HA) of A/New Jersey/76 (H1N1) on pseudotyped lentivirus (Influenza virus A/New Jersey/76 (H1N1))
[9] = target: hemagglutinin (HA) of A/Fort Monmouth/1/47 (H1N1) on pseudotyped lentivirus (Influenza virus A/Fort Monmouth/1/47 (H1N1)) (UniProt A4U7A6)
[10] = target: hemagglutinin (HA) of A/New York/146/00 (H1N1) on pseudotyped lentivirus (Influenza virus A/New York/146/00 (H1N1))
[11] = target: hemagglutinin (HA) of A/New York/653/96 (H1N1) on pseudotyped lentivirus (Influenza virus A/New York/653/96 (H1N1))
[12] = target: hemagglutinin (HA) of A/South Carolina/1/18 (H1N1) on pseudotyped lentivirus (Influenza virus A/South Carolina/1/18 (H1N1)) (UniProt Q9WFX3)
[13] = target: hemagglutinin (HA) of A/Solomon Islands/3/06 (H1N1) on pseudotyped lentivirus (Influenza virus A/Solomon Islands/3/06 (H1N1))

Substance | Neutralization IC50, lentivirus pseudotype neutralization assay [1] [µg/mL] | Neutralization IC50, lentivirus pseudotype neutralization assay [2] [µg/mL] | Neutralization IC50, lentivirus pseudotype neutralization assay [3] [µg/mL] | Neutralization IC50, lentivirus pseudotype neutralization assay [4] [µg/mL] | Neutralization IC50, lentivirus pseudotype neutralization assay [5] [µg/mL] | Neutralization IC50, lentivirus pseudotype neutralization assay [6] [µg/mL] | Neutralization IC50, lentivirus pseudotype neutralization assay [7] [µg/mL] | Neutralization IC50, lentivirus pseudotype neutralization assay [8] [µg/mL] | Neutralization IC50, lentivirus pseudotype neutralization assay [9] [µg/mL] | Neutralization IC50, lentivirus pseudotype neutralization assay [10] [µg/mL] | Neutralization IC50, lentivirus pseudotype neutralization assay [11] [µg/mL] | Neutralization IC50, lentivirus pseudotype neutralization assay [12] [µg/mL] | Neutralization IC50, lentivirus pseudotype neutralization assay [13] [µg/mL]
monoclonal antibody 441D6 | 0.14 | 0.04 | 0.07 | 0.04 | 0.08 | 0.01 | 11.1 | 0.03 | 0.02 | 0.01 | 0.02 | 0.04 | 0.29
monoclonal antibody CH65 (anti-receptor binding site of HA) | 0.02 | 0.97 | 0.01 | 0.01 | 0.44 | < 0.005 | > 50 | > 25 | 5.86 | 0.03 | < 0.005 | 0.57 | 1.3
monoclonal antibody FI6v3 (anti-HA stem region) | > 25 | 0.09 | 1.01 | 0.09 | 0.97 | 0.01 | 3.4 | 0.36 | 22.2 | 0.08 | 0.15 | 4.4 | 0.94
